From article PMC7039627

Target: extracellular domain of hCTLA-4 (Homo sapiens) (UniProt P16410)
Assay: SPR

Chain of UniProt P16410 (P16410 36-161): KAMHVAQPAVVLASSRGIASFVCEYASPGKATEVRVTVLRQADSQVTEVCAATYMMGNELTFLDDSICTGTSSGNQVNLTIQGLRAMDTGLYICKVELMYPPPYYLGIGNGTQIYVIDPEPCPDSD

Kd: 3.68 nM
Substance: Ipilimumab (antibody)
